The test concerns the target Recombinant RNMT (human) (UniProt O43148).

This is an account of results in article PMC3235549.

UniProt O43148, sequence (O43148 whole entry): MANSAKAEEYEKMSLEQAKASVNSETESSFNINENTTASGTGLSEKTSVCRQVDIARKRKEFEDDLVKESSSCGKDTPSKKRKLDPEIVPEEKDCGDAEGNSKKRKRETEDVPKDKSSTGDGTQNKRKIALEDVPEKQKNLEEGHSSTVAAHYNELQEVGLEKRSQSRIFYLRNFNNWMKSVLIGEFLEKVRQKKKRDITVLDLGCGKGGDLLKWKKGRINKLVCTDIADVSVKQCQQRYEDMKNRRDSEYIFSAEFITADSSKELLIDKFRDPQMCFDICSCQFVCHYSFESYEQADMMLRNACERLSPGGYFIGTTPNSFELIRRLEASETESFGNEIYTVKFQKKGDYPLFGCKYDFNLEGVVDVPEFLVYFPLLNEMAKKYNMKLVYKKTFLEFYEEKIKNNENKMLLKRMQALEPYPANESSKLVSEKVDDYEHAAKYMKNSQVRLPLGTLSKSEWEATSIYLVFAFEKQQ

Take “Recombinant RAM (from UniProt Q9BTL3 1-118) (natural protein)”: the in vitro cap methyltransferase assay, 20 nM RNMT with 20 nM RAM (Figure 3D) is above 4 fold.
